These results are taken from publication PMC3936710.

For series [1], the target named is T1, TRF1 (UniProt P54274).
T1 sequence: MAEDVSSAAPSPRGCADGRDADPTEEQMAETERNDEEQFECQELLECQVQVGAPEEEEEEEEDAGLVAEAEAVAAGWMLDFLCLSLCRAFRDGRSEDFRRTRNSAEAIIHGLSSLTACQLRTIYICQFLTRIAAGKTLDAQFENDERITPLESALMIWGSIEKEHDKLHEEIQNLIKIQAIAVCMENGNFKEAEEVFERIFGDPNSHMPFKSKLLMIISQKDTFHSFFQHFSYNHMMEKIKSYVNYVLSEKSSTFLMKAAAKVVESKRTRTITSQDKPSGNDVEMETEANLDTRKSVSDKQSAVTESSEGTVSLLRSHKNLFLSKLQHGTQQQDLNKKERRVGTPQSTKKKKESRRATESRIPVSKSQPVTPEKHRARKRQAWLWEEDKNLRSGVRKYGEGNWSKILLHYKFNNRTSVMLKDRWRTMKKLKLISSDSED
The experiment in a line: single-molecule DNA tightrope. The following applies: Tightrope assays at 75-225 mM ionic strength (buffer, pH and temperature not in the material); AFM samples diluted 10-fold in 25 mM NaOAc, 25 mM HEPES-KOH pH 7.

For series [2], the target named is T2, TRF2 (UniProt Q15554).
T2 sequence: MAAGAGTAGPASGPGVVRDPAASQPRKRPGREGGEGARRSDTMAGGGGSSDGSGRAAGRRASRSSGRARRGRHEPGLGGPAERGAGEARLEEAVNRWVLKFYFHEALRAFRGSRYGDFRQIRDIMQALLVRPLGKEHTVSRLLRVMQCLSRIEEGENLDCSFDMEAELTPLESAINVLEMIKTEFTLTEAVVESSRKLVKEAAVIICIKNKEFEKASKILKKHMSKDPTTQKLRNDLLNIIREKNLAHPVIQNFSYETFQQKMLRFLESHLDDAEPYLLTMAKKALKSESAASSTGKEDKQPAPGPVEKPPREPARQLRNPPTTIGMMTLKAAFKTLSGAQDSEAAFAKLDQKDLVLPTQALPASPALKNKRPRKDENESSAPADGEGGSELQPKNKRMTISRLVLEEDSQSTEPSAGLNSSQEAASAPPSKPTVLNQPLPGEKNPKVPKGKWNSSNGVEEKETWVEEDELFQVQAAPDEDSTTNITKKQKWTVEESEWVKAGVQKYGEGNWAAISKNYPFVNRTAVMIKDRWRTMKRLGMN
The experiment in a line: single-molecule DNA tightrope. The following applies: Tightrope assays at 75-225 mM ionic strength (buffer, pH and temperature not in the material); AFM samples diluted 10-fold in 25 mM NaOAc, 25 mM HEPES-KOH pH 7.

The target in series [3] is T3, TRF2ΔB (UniProt Q15554).
T3 sequence: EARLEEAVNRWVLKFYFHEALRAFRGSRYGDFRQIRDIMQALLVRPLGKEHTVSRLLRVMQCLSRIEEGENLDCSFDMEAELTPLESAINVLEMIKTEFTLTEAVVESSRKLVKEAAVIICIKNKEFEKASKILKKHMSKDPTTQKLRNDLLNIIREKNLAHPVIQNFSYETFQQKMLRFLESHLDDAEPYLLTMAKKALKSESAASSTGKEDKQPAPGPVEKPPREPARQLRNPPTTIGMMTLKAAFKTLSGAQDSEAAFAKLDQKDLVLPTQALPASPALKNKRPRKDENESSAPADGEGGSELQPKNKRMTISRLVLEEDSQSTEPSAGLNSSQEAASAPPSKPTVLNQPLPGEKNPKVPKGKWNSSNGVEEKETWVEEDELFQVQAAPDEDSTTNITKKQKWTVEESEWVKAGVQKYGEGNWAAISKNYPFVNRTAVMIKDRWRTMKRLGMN
As to the kind of experiment: AFM. The following applies: linear T270; Tightrope assays at 75-225 mM ionic strength (buffer, pH and temperature not in the material); AFM samples diluted 10-fold in 25 mM NaOAc, 25 mM HEPES-KOH pH 7.

Series [4] has as its target T3, TRF2ΔB. The experiment in a line: single-molecule DNA tightrope. The following applies: 125 mM ionic strength; Tightrope assays at 75-225 mM ionic strength (buffer, pH and temperature not in the material); AFM samples diluted 10-fold in 25 mM NaOAc, 25 mM HEPES-KOH pH 7.
Series [5] relates to TRF2 Myb domain. As to the kind of experiment: cited. As to conditions: Tightrope assays at 75-225 mM ionic strength (buffer, pH and temperature not in the material); AFM samples diluted 10-fold in 25 mM NaOAc, 25 mM HEPES-KOH pH 7.; cited from earlier work.
Series [6] deals with TRF1 Myb domain. As to the kind of experiment: cited. As to conditions: Tightrope assays at 75-225 mM ionic strength (buffer, pH and temperature not in the material); AFM samples diluted 10-fold in 25 mM NaOAc, 25 mM HEPES-KOH pH 7.; cited from earlier work.

Several values for one entry are separate records, joined by “and”; a condition that tells them apart may be missing. Equal entries are not always repeated.

Regarding T270 telomeric region (TTAGGG)270, the binding signal (s (attached lifetime)) was 17.3 and 9.2 in series [1]; 14.8 and 10.3 in series [2]. The binding signal (% of DNA-bound QDs at telomeric region) in series [3] is 66. “TTAGGGTTAGGGTTAGGGTTAGGGTTAGGGTTAGGGTTAGGGTTAGGGTTAGGGTTAGGG (double strand) [Tel10 telomeric region (TTAGGG)10]”: the binding signal (s (attached lifetime)) in series [2] stood at 6.7.

In series [4], lambda DNA displayed a binding signal (QDs per field of view (TRF2 13.3)) of 1.4.

Broadly, the Kd is a measure of binding affinity in units of concentration. Consider telomeric DNA of cited Myb domain study, for which the Kd in series [5] is 0.75 µM; in series [6] it was 0.2 µM.
